Results from patent US8822407B2, “Preparation of conjugates comprising adenine derivatives and allergenic proteins and their use for specific immunotherapy of allengenic diseases” (Universita' Degli Studi di Firenze, priority 2010, dated 2014).

Experiments:
TLR8 = target: T1, TLR8 (Homo sapiens, UniProt Q9NR97); assay: TLR8-transfected HEK293 cells, NF-kB luciferase reporter; type: cell-based; conditions: R-848 2 μg/ml; data not shown
T1 construct: expressed in transfected cells; host or cells: HEK293 (transient Nucleofection, Amaxa)
T1 sequence (Q9NR97 27-1041): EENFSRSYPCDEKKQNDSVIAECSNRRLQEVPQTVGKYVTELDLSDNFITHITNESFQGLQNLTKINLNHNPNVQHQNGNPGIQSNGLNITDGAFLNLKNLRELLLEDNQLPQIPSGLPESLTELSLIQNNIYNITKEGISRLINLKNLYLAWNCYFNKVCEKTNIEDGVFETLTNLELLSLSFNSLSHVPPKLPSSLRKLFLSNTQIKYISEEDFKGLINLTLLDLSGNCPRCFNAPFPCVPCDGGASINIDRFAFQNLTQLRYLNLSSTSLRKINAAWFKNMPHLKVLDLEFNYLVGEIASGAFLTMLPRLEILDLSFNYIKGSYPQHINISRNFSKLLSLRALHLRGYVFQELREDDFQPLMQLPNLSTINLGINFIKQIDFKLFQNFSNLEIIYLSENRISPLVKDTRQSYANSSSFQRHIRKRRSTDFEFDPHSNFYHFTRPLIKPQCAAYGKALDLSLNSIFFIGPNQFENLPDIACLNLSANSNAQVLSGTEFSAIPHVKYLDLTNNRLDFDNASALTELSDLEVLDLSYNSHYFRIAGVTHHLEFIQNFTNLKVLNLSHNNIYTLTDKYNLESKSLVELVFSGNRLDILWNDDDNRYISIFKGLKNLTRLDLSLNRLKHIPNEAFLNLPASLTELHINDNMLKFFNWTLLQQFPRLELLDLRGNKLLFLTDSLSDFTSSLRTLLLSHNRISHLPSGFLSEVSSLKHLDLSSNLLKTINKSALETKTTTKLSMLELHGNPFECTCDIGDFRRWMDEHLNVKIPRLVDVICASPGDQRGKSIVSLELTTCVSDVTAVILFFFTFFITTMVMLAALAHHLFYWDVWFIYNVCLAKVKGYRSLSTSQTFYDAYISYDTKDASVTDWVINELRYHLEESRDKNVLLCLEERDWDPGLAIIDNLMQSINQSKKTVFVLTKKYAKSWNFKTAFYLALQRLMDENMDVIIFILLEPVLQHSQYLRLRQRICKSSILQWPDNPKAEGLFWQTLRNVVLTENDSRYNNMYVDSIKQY
Procedure: HEK293 cells are detached by trypsin from the plastic surface of the culture bottle, extensively washed with calcium and magnesium-free PBS, counted and adjusted at the concentration 1×10^6 cells/tube in polypropylene V-bottomed tubes. After the final wash, the cells are pelleted and 100 μl transfection buffer (Amaxa) is added together with […], TLR7, TLR8 or TLR9-encoding and ELAM-1 promoter NF-kB luciferase reporter plasmids. The mixture thus obtained is transferred in special cuvettes and transient transfection is obtained in a special apparatus which is able to directly introduce genetic material into the nucleus (Nucleofection®, Amaxa GmbH). The cells are then recovered and cultured at 1×10^5/ml in 48-flat bottomed plates in E-MEM medium plus 5% foetal calf serum for 18 hrs. […] Finally the luciferase activity is measured in the cellular lysates by a commercial kit (Promega).

[1] = test system: allergen-specific T cell clones; assay: Functional phenotype of allergen-specific T cell clones; type: cell-based, human; conditions: for Clonal Efficiency (%): T cell lines derived in the presence of the stimulus
Excerpt: For the functional analysis of T cell clones specific for nDer p2 and nDer p2-con j, T cell lines are initially derived from MNC of two atopic donors (G. E. and M. A.) affected by bronchial asthma and allergic rhinitis and sensitized to Dermatophagoides pteronyssinus, in the presence of nDer p2- or its respective conjugate nDer p2-conj. […] 28 allergen-specific T cell clones are obtained from T cell lines specific for nDer p2 from donor two and 37 from donor one whereas 28 clones are obtained from T cell lines derived in the presence of nDer p2-conj from both donors.
The allergen-specific clones obtained in the different experimental conditions have been then assessed for their ability to produce IL-4 ([…]) and IFN-gamma (pg/ml) in the culture supernatants after polyclonal stimulation with PMA and anti-CD3 monoclonal antibody.

Molecule | NF-κB expression in TLR8-transfected HEK293 cells (TLR8) | Clonal Efficiency (%) ([1]; Donor one) | Clonal Efficiency (%) ([1]; Donor two) | clones producing IL-4 alone ([1]; donor one, PMA and anti-CD3) [%] | clones producing IL-4 together with IFN-gamma (TH0 phenotype) ([1]; donor one, PMA and anti-CD3) [%] | clones able to produce IL-4 alone or together with IFN-gamma ([1]; donor two, PMA and anti-CD3) [%]
CCOCc1nc2c(N)nc3ccccc3c2n1CC(C)(C)O [Conj R-848, reference compound] | able to induce NF-κB expression |  |  |  |  | 
nDer p2: purified natural allergen Der p2, major allergen from the house dust mite Dermatophagoides pteronyssinus (protein, UniProt P49278 18-146, looked up, natural purified, purified natural allergen Der p2, major allergen from the house dust mite Dermatophagoides pteronyssinus) Mite group 2 allergen Der p 2: DQVDVKDCANHEIKKVLVPGCHGSEPCIIHRGKPFQLEAVFEANQNTKTAKIEIKASIDGLEVDVPGIDPNACHYMKCPLVKGQQYDIKYTWNVPKIAPKSENVVVTVKVMGDDGVLACAIATHAKIRD |  | 30 | 24 | 56.7 | 29.7 | 75
